Consider 14 molecules from publication PMC10397247.

Like-named read-outs stand apart in the source and are kept apart here.

Experiment in all cases: two-hybrid library CCmax;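 further: natural log of median RNA to DNA barcode read ratio; higher means stronger binding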
One assay has as its target T1, 4H688-AA.
T1 chain: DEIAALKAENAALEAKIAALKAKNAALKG
To be noted: mean of both orientations.

The next assay has as its target T2, 4H3340-AA.
T2 chain: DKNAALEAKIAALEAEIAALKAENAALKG
The note with it: mean of both orientations.

The target in a further assay is T3, 4H2504-AA.
T3 chain: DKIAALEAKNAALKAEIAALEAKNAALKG
To be noted: mean of both orientations.

A further assay has as its target T4, 4H963-AA.
T4 chain: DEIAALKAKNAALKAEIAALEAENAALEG
The note with it: mean of both orientations.

The next assay concerns the target T5, 4H376-AA.
T5 chain: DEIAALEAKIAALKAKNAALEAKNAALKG
To be noted: mean of both orientations.

Another assay has as its target T6, AP3-AA.
T6 chain: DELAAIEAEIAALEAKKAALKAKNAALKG
The note with it: mean of both orientations.

The target of another assay is T7, 4H_APH2.
T7 chain: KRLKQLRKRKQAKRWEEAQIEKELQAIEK

The next assay concerns the target T8, P11-AA.
T8 chain: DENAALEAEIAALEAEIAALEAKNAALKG
To be noted: mean of both orientations.

In a further assay the target is T9, O5-AA.
T9 chain: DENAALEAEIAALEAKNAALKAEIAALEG
The note with it: mean of both orientations.

For another assay, the target named is T10, P1-AA.
T10 chain: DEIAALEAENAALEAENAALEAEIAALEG
The note with it: mean of both orientations.

A further assay addresses T11, P8-AA.
T11 chain: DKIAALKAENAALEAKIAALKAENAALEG
The note with it: mean of both orientations.

Another assay addresses T12, 4H_APH4.
T12 chain: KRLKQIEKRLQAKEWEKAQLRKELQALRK

The next assay has as its target T13, P4-AA.
T13 chain: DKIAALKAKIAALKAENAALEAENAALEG
The note with it: mean of both orientations.

The next assay has as its target T14, AP7-AA.
T14 chain: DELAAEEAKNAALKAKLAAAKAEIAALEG
To be noted: mean of both orientations.

The target in a further assay is T15, AP2-AA.
T15 chain: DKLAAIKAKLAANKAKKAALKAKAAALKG
The note with it: mean of both orientations.

The next assay deals with T16, P2-AA.
T16 chain: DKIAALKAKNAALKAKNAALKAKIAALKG
The note with it: mean of both orientations.

For a further assay, the target named is T17, zCON9_B.
T17 chain: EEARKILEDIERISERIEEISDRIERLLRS
The note with it: mean of both orientations.

Another assay addresses T18, P3-AA.
T18 chain: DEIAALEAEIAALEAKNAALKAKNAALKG
To be noted: mean of both orientations.

Another assay concerns the target T19, AP8-AA.
T19 chain: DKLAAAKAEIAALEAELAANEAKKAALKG
The note with it: mean of both orientations.

For a further assay, the target named is T20, 4H2078-AA.
T20 chain: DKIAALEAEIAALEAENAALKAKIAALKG
To be noted: mean of both orientations.

For a further assay, the target named is T21, 4H1153-AA.
T21 chain: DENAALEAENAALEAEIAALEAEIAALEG

Another assay has as its target T22, 4H3354-AA.
T22 chain: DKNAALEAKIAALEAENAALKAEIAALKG
The note with it: mean of both orientations.

The next assay deals with T23, 4H953-AA.
T23 chain: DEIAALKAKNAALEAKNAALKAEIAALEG
The note with it: mean of both orientations.

The next assay has as its target T24, 4H4001-AA.
T24 chain: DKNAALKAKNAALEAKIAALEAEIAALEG
To be noted: mean of both orientations.

A further assay has as its target T25, 4H883-AA.
T25 chain: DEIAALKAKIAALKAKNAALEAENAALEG

The target of the next assay is T26, 4H967-AA.
T26 chain: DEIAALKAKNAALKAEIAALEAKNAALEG
To be noted: mean of both orientations.

For another assay, the target named is T27, 4H918-AA.
T27 chain: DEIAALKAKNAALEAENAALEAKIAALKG
To be noted: mean of both orientations.

The target in another assay is T28, 4H687-AA.
T28 chain: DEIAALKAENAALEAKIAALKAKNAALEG
To be noted: mean of both orientations.

The next assay deals with T29, 4H568-AA.
T29 chain: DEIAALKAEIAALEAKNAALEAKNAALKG
The note with it: mean of both orientations.

Another assay concerns the target T30, 4H2343-AA.
T30 chain: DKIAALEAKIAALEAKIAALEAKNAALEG
To be noted: mean of both orientations.

For a further assay, the target named is T31, 4H1349-AA.
T31 chain: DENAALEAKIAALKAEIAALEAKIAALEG
The note with it: mean of both orientations.

In the next assay the target is T32, 4H1257-AA.
T32 chain: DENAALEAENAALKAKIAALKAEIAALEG

The target of a further assay is T33, 4H1558-AA.
T33 chain: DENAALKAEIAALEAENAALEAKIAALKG
The note with it: mean of both orientations.

A further assay concerns the target T34, 4H1360-AA.
T34 chain: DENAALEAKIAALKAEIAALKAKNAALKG
The note with it: mean of both orientations.

In another assay the target is T35, 4H1454-AA.
T35 chain: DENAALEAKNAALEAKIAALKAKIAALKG
To be noted: mean of both orientations.

The target in another assay is T36, 4H3921-AA.
T36 chain: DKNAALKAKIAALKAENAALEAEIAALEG
The note with it: mean of both orientations.

Another assay concerns the target T37, 4H780-AA.
T37 chain: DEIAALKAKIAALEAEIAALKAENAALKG
To be noted: mean of both orientations.

A further assay deals with T38, 4H2888-AA.
T38 chain: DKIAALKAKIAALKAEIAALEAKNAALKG
The note with it: mean of both orientations.

Another assay has as its target T39, 4H1392-AA.
T39 chain: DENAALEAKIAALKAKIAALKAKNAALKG
To be noted: mean of both orientations.

Another assay has as its target T40, 4H337-AA.
T40 chain: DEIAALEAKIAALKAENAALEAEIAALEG
To be noted: mean of both orientations.

The target in a further assay is T41, 4H3587-AA.
T41 chain: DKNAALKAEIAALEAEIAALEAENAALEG
The note with it: mean of both orientations.

The target of the next assay is T42, 4H2736-AA.
T42 chain: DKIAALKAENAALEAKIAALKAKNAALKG
The note with it: mean of both orientations.

The next assay has as its target T43, 4H3905-AA.
T43 chain: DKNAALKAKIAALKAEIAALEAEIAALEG
To be noted: mean of both orientations.

As to DEIAALEAENAALKAKNAALKAEIAALEG [4H249-AA], the interaction score was 0.32 with 4H688-AA; -1.45 in the assay with 4H3340-AA; -1.35 with 4H2504-AA; -1.65 in the assay with 4H963-AA; -1.45 with 4H376-AA.

Take DKNAALKAEIAALEAENAALEAKIAALKG [4H3606-AA]: the interaction score in the assay with AP3-AA is -1.06; with 4H_APH2 it was -2.3; with P11-AA, -1.15; with O5-AA, 2.23; in the assay with P1-AA, -1.64; with P8-AA, -0.645. Also, the interaction score with 4H_APH4 was -1.64; with P4-AA, -0.573; with AP7-AA, -1.35; in the assay with AP2-AA, -1.36; with P2-AA, 0.917; in the assay with zCON9_B, -0.854. Further, the figures for the interaction score with P3-AA and with AP8-AA were -0.421 and -1.43, respectively.

In the case of DENAALEAKIAALKAKNAALKAEIAALEG [4H1401-AA], the interaction score with AP3-AA is -0.918; with 4H_APH2, -2.35; with P11-AA, 0.388; with P1-AA, -0.911; with P8-AA, 0.854; with 4H_APH4 it was -1.85. Further, the interaction score with P4-AA was -1.93; in the assay with AP7-AA, -1.37; in the assay with 4H2078-AA, 1.93; in the assay with AP2-AA it was -1.98; in the assay with P2-AA, -1.76; in the assay with zCON9_B it was -0.316. Also, the interaction score with P3-AA was -1.1; with AP8-AA, -0.198.

As to DENAALEAEIAALKAKNAALEAKIAALKG [4H1142-AA], the interaction score with 4H1153-AA (mean of both orientations) is -1.39.

With DENAALKAKIAALEAKNAALEAKIAALEG [4H1845-AA], the interaction score with 4H3354-AA was -1.37; with 4H953-AA, -1.52; in the assay with 4H4001-AA, -1.9; with 4H883-AA (mean of both orientations) it was -1.57; in the assay with 4H967-AA, -1.65; in the assay with 4H918-AA, -1. Further, the interaction score is -1.51 in the assay with 4H687-AA and -1.18 in the assay with 4H568-AA.

In the assay with 4H2343-AA, DKIAALEAENAALKAEIAALKAKIAALEG [4H2253-AA] gave an interaction score of -2.02.

In the case of DENAALEAEIAALEAKIAALEAKNAALKG [4H1064-AA], the interaction score in the assay with 4H1349-AA was 0.539; with 4H1257-AA (mean of both orientations) it was 0.616; with 4H1558-AA, -1.61; with 4H1360-AA, 0.702; with 4H1454-AA, 0.729.

DENAALKAEIAALKAENAALKAEIAALKG [4H1626-AA]: the interaction score with 4H688-AA was -1.19; with 4H3340-AA, -1.43; with 4H2504-AA, -1.49; in the assay with 4H963-AA, -1.46; with 4H376-AA it was -1.87.

DEIAALEAENAALEAKIAALKAENAALEG [4H171-AA] yielded an interaction score with O5-AA of -0.0194.

In the case of DENAALEAENAALKAKIAALKAEIAALEG [4H1257-AA], the interaction score with 4H3354-AA is -1.6; with 4H953-AA it was -1.45; with 4H4001-AA it was -0.973; with 4H883-AA, -1.67; in the assay with 4H1349-AA, 0.365; with 4H1257-AA, 0.41. The interaction score was -0.232 with 4H1558-AA; -0.389 with 4H967-AA; -0.666 in the assay with 4H1360-AA; -1.05 with 4H918-AA; -1.24 with 4H687-AA; -0.555 with 4H1454-AA. This molecule yielded an interaction score with 4H568-AA of -0.953.

On to DENAALEAENAALEAEIAALEAEIAALEG [4H1153-AA], for which the interaction score with 4H1153-AA is -1.43; in the assay with 4H3921-AA it was -1.87; in the assay with 4H2078-AA it was -0.975; in the assay with 4H780-AA, -1.44.

As to DKIAALEAEIAALKAKNAALEAKIAALEG [4H2165-AA], the interaction score with 4H2343-AA is -1.25; with 4H3921-AA, -1.58; with 4H780-AA, -1.4.

With DENAALEAKIAALKAEIAALEAKIAALKG [4H1350-AA], the interaction score with 4H2888-AA is 2.21; in the assay with 4H1392-AA it was -0.186; in the assay with 4H337-AA, 1.52; with 4H3587-AA, 1.39; in the assay with 4H2736-AA, -1.22; with 4H3905-AA, 1.9.

On to DENAALEAKIAALKAKIAALKAEIAALEG [4H1385-AA], for which the interaction score with 4H2888-AA is 1.96; with 4H1392-AA, -0.355; with 4H337-AA it was 0.173; with 4H3587-AA, 1.58; with 4H2736-AA it was -0.116; with 4H3905-AA, 2.31.
